Assay results: PMC3852661, “Structural basis of SUFU–GLI interaction in human Hedgehog signalling regulation” (Acta Crystallographica Section D: Biological Crystallography, 2013)

Tests used:
MBP-SUFU-FL = target: T1, MBP-SUFU-FL (Homo sapiens, UniProt Q9UMX1); experiment: SYPRO Orange initial fluorescence upon peptide addition, MBP-SUFU-FL; type: binding; conditions: excitation 470 nm, emission 570 nm, pH 7.0
T1 construct: containing residues 32–483 of human SUFU and a C-terminal hexahistidine tag; hexahistidine tag (C); made in house; host or cells: Escherichia coli JM109 (DE3)
Procedure: (§1) Recombinant MBP-SUFU proteins were diluted to 2.6 µM in 50 mM Na HEPES pH 7.0, 50 mM NaCl, 5 mM β-mercaptoethanol; the peptides GLI1p and GLI1p-SH (Supplementary Table S1b), synthesized by Dr W. Mawby (University of Bristol), were dissolved in the same buffer. Proteins were spun at 14 000g for 20 min at 4°C before adding SYPRO Orange (Molecular Probes) to a final concentration of 6×. Reaction volumes of 25 µl were prepared in 96-well PCR plates with 2.2 µM protein/SYPRO Orange solution and, where applicable, 44 µM peptide. Plates were sealed with optical tape, heated from 20 to 90°C in 12 s 0.2°C steps in an iCycler and fluorescence was detected using an excitation wavelength of 470 nm and an emission wavelength of 570 nm.
Recombinant MBP-SUFU constructs were diluted to 2.5 µM in 50 mM Na HEPES pH 7.0, 50 mM NaCl, 5 mM β-mercaptoethanol and spun at 14 000g for 20 min at 4°C before the addition of SYPRO Orange to a final 5× concentration of dye. The fluorescence of 100 µl samples was measured in black 96-well plates (Nunc) using excitation at λ = 470 nm and emission at λ = 570 nm. GLI1p or GLI1p-SH peptides prepared in the same buffer as above were added in the given ratios and mixed before a second reading was taken. Readings post-peptide addition were divided by the corresponding pre-peptide addition measurements to obtain normalized results. […]

MBP-SUFU-SH = experiment: Thermal stability assay with peptide, MBP-SUFU-SH; type: binding, human; conditions: 44 µM peptide, 2.2 µM protein, SYPRO Orange, pH 7.0; triplicate
Procedure: as §1
Figure 4 The SUFU IDR has distinct structural properties. (a) Thermal stability assays of MBP-SUFU constructs performed in triplicate, either alone (blue) or with GLI1p (red) or GLI1p-SH (green). […] (b) Microscale thermophoresis experiments with FAM-GLI1p and titrated MBP-SUFU constructs, showing an average of three separate experiments. All proteins have similar affinity, but the thermophoretic properties of FAM-GLI1p are modified differently between the MBP-SUFU-FL construct and the MBP-SUFU-Δ and MBP-SUFU-SH constructs, reflecting a difference in shape.

T1 sequence (Q9UMX1 32-483, other chains not shown): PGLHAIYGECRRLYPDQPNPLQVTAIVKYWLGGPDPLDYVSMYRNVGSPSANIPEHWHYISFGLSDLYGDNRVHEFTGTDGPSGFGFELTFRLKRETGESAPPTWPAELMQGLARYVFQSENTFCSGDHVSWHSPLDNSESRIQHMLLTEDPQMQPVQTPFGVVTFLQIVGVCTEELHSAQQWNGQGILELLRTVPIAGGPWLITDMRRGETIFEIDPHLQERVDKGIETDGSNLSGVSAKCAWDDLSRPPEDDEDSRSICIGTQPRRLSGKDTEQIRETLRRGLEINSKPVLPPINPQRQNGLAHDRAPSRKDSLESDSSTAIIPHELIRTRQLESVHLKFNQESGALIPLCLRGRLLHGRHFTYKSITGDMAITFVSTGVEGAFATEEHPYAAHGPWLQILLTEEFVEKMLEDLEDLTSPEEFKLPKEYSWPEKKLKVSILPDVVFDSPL
Sequence of MBP-SUFU-SH (Q9UMX1 32-278 limits assumed): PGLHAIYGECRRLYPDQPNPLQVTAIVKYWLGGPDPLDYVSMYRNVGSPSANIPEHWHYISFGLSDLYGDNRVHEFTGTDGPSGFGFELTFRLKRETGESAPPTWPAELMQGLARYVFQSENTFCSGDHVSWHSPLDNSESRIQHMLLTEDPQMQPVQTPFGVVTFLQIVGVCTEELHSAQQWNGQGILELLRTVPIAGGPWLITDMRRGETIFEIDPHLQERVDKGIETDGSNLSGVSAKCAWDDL
Sequence of MBP-SUFU-SH (Q9UMX1 361-483 limits assumed): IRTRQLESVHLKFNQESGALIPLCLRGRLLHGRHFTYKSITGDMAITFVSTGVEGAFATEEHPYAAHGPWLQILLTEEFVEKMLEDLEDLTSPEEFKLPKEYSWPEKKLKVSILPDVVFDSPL

GLI1p: human GLI1-derived peptide; residues 115–131, containing the highly conserved SYGH motif (TSPGGSYGHLSIGTMSP)
initial fluorescence upon addition of GLI1p (MBP-SUFU-FL): high initial fluorescence values | binding (MBP-SUFU-SH): All constructs bind to GLI1p
